From PMC12102759 (2025)

B1: AMOTL2 peptide 64-79 (Angiomotin-like protein 2), 16-mer library wild type / TNKS ANK (TNKS 12 ANK repeats, residues 174-649) (parent complex)
chain 1: QVLQQATRQEPQGQEH
chain 2: TGVPAVSGALRELLEACRNGDVSRVKRLVDAANVNAKDMAGRKSSPLHFAAGFGRKDVVEHLLQMGANVHARDDGGLIPLHNACSFGHAEVVSLLLCQGADPNARDNWNYTPLHEAAIKGKIDVCIVLLQHGADPNIRNTDGKSALDLADPSAKAVLTGEYKKDELLEAARSGNEEKLMALLTPLNVNCHASDGRKSTPLHLAAGYNRVRIVQLLLQHGADVHAKDKGGLVPLHNACSYGHYEVTELLLKHGACVNAMDLWQFTPLHEAASKNRVEVCSLLLSHGADPTLVNCHGKSAVDMAPTPELRERLTYEFKGHSLLQAAREADLAKVKKTLALEIINFKQPQSHETALHCAVASLHPKRKQVTELLLRKGANVNEKNKDFMTPLHVAAERAHNDVMEVLHKHGAKMNALDTLGQTALHRAALAGHLQTCRLLLSYGSDPSIISLQGFTAAQMGNEAVQQILSESTPIRTSD

Variants of: B1
Assay: proteomic peptide phage display deep mutational scan (ProP-PD DMS): M13 P8 16-mer library selected against immobilised GST-tagged bait for four days (rounds), NGS of the eluted pools per day and pseudo-replica; bait immobilised on MaxiSorp plates (10 µg), library pre-cleared on GST, 2 h binding at 4 °C, five washes; one round per day, days 1-4; value from days 2 and 3

**Q.** Which screen value does the source give for chain 1 E15Q here?
**A.** 0.000335 average fractional NGS count over selection days 2 and 3 (reads of this peptide / all reads for the bait, averaged over …

**Q.** Which screen value does the source give for chain 1 E15T here?
**A.** 0.00184 average fractional NGS count over selection days 2 and 3 (reads of this peptide / all reads for the bait, averaged over …

**Q.** With chain 1 E15M as the variant, how does the screen value read?
**A.** 0.000421 average fractional NGS count over selection days 2 and 3 (reads of this peptide / all reads for the bait, averaged over …

**Q.** chain 1 E15A was tested. Which screen value did it give?
**A.** 0.000599 average fractional NGS count over selection days 2 and 3 (reads of this peptide / all reads for the bait, averaged over …

**Q.** How did the screen value turn out when chain 1 E15R was run?
**A.** 0.00165 average fractional NGS count over selection days 2 and 3 (reads of this peptide / all reads for the bait, averaged over …

**Q.** How did the screen value turn out when chain 1 E15L was run?
**A.** 0.00245 average fractional NGS count over selection days 2 and 3 (reads of this peptide / all reads for the bait, averaged over …

**Q.** With chain 1 A6W as the variant, how does the screen value read?
**A.** 0.000677 average fractional NGS count over selection days 2 and 3 (reads of this peptide / all reads for the bait, averaged over …

**Q.** chain 1 A6H was tested. Which screen value did it give?
**A.** 0.00168 average fractional NGS count over selection days 2 and 3 (reads of this peptide / all reads for the bait, averaged over …

**Q.** chain 1 Q14N was tested. Which screen value did it give?
**A.** 0.00223 average fractional NGS count over selection days 2 and 3 (reads of this peptide / all reads for the bait, averaged over …

**Q.** chain 1 Q14D was tested. Which screen value did it give?
**A.** 0.00025 average fractional NGS count over selection days 2 and 3 (reads of this peptide / all reads for the bait, averaged over …

**Q.** For chain 1 Q14S, which screen value is on record?
**A.** 0.00613 average fractional NGS count over selection days 2 and 3 (reads of this peptide / all reads for the bait, averaged over …

**Q.** Which screen value does the source give for chain 1 Q14E here?
**A.** 0.000547 average fractional NGS count over selection days 2 and 3 (reads of this peptide / all reads for the bait, averaged over …

**Q.** For chain 1 L3I, which screen value is on record?
**A.** 0.00105 average fractional NGS count over selection days 2 and 3 (reads of this peptide / all reads for the bait, averaged over …

**Q.** With chain 1 L3F as the variant, how does the screen value read?
**A.** 0.00165 average fractional NGS count over selection days 2 and 3 (reads of this peptide / all reads for the bait, averaged over …

**Q.** chain 1 L3P was tested. Which screen value did it give?
**A.** 0.000422 average fractional NGS count over selection days 2 and 3 (reads of this peptide / all reads for the bait, averaged over …

**Q.** Which screen value does the source give for chain 1 Q4N here?
**A.** 0.00124 average fractional NGS count over selection days 2 and 3 (reads of this peptide / all reads for the bait, averaged over …

**Q.** How did the screen value turn out when chain 1 Q4L was run?
**A.** 0.000267 average fractional NGS count over selection days 2 and 3 (reads of this peptide / all reads for the bait, averaged over …

**Q.** For chain 1 Q4K, which screen value is on record?
**A.** 0.000138 average fractional NGS count over selection days 2 and 3 (reads of this peptide / all reads for the bait, averaged over …

**Q.** For chain 1 V2N, which screen value is on record?
**A.** 0.00035 average fractional NGS count over selection days 2 and 3 (reads of this peptide / all reads for the bait, averaged over …

**Q.** With chain 1 V2P as the variant, how does the screen value read?
**A.** 0.000487 average fractional NGS count over selection days 2 and 3 (reads of this peptide / all reads for the bait, averaged over …

**Q.** Which screen value does the source give for chain 1 V2H here?
**A.** 0.00146 average fractional NGS count over selection days 2 and 3 (reads of this peptide / all reads for the bait, averaged over …

**Q.** chain 1 V2G was tested. Which screen value did it give?
**A.** 0.000586 average fractional NGS count over selection days 2 and 3 (reads of this peptide / all reads for the bait, averaged over …

**Q.** How did the screen value turn out when chain 1 V2L was run?
**A.** 0.0017 average fractional NGS count over selection days 2 and 3 (reads of this peptide / all reads for the bait, averaged over …

**Q.** Which screen value does the source give for chain 1 V2F here?
**A.** 0.000314 average fractional NGS count over selection days 2 and 3 (reads of this peptide / all reads for the bait, averaged over …

**Q.** For chain 1 V2Q, which screen value is on record?
**A.** 0.000414 average fractional NGS count over selection days 2 and 3 (reads of this peptide / all reads for the bait, averaged over …

**Q.** chain 1 V2Y was tested. Which screen value did it give?
**A.** 0.000153 average fractional NGS count over selection days 2 and 3 (reads of this peptide / all reads for the bait, averaged over …

**Q.** How did the screen value turn out when chain 1 H16D was run?
**A.** 0.000297 average fractional NGS count over selection days 2 and 3 (reads of this peptide / all reads for the bait, averaged over …

**Q.** chain 1 H16L was tested. Which screen value did it give?
**A.** 0.000215 average fractional NGS count over selection days 2 and 3 (reads of this peptide / all reads for the bait, averaged over …

**Q.** Which screen value does the source give for chain 1 H16S here?
**A.** 0.000142 average fractional NGS count over selection days 2 and 3 (reads of this peptide / all reads for the bait, averaged over …

**Q.** Which screen value does the source give for chain 1 H16W here?
**A.** 0.000565 average fractional NGS count over selection days 2 and 3 (reads of this peptide / all reads for the bait, averaged over …

**Q.** With chain 1 Q12E as the variant, how does the screen value read?
**A.** 0.000439 average fractional NGS count over selection days 2 and 3 (reads of this peptide / all reads for the bait, averaged over …

**Q.** chain 1 Q12S was tested. Which screen value did it give?
**A.** 0.000155 average fractional NGS count over selection days 2 and 3 (reads of this peptide / all reads for the bait, averaged over …

**Q.** How did the screen value turn out when chain 1 Q12I was run?
**A.** 0.00433 average fractional NGS count over selection days 2 and 3 (reads of this peptide / all reads for the bait, averaged over …

**Q.** For chain 1 Q12G, which screen value is on record?
**A.** 0.000392 average fractional NGS count over selection days 2 and 3 (reads of this peptide / all reads for the bait, averaged over …

**Q.** Which screen value does the source give for chain 1 Q12T here?
**A.** 0.0005 average fractional NGS count over selection days 2 and 3 (reads of this peptide / all reads for the bait, averaged over …

**Q.** For chain 1 E10H, which screen value is on record?
**A.** 0.000153 average fractional NGS count over selection days 2 and 3 (reads of this peptide / all reads for the bait, averaged over …

**Q.** chain 1 E10M was tested. Which screen value did it give?
**A.** 0.00083 average fractional NGS count over selection days 2 and 3 (reads of this peptide / all reads for the bait, averaged over …
